Data: patent US20240277803A1, “NME INHIBITORS AND METHODS OF USING NME INHIBITORS” (Minerva Biotechnologies Corporation, priority 2013, published 2024)

Key:
T47D breast cancer cells = assay: engraftment and growth of T47D cells mixed with NME7-AB in mice (FIG. 51); assay type: in vivo, Immune-compromised mice
Source text: For example, some cancer cells are very difficult to engraft in animals. We increased the engraftment rate of cancer cells by several fold by injecting the animal with human NME7 or NME7-AB. Immune-compromised mice were implanted with T47D breast cancer cells that were mixed 50/50 vol/vol with either Matrigel or NME7-AB. After 10 days, the mice that had received the NME7 mixed cells were additionally injected with NME7-AB every day (FIG. 51). […] Engraftment rates, decreased numbers of required cells and a faster tumor growth rate resulted when NME7-AB was mixed with the cancer cells when implanted and when the mice were injected every 24 or 48 hours after implantation. A range of ratios of cancer cells to NME7 or the injection schedule of NME7 is expected to vary from one mouse strain to another and from one tumor type to another. In an improvement over this method, animals that are transgenic for human NME7 or NME7-AB greatly increase engraftment rates of cancer cells and thus, decrease the number of cells required to develop into a tumor in an animal. This allows growth of primary patient cancer cells in an animal expressing human NME7 or NME7-AB.

[1] = target: T1, MUC1* extra cellular domain peptide (Homo sapiens, UniProt P15941); assay: gold nanoparticle binding assay, NME7 and MUC1* peptide (FIG. 7); conditions: protein added free in solution
T1 sequence (P15941 with tags, fused parts or gaps): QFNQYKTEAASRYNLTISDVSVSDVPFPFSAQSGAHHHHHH
Protocol: Gold nanoparticles of a diameter of 30.0 nm were coated with an NTA-SAM surface according to Thompson et al. (ACS Appl. Mater. Interfaces, 2011, 3 (8), pp 2979-2987). The NTA-SAM coated gold nanoparticles were then activated with an equal volume of 180 uM NiSO4, incubated for 10 min at room temperature, washed, and resuspended in a 10 mM phosphate buffer ([…]). The gold nanoparticles were then loaded with PSMGER N-10 peptide ([…] (SEQ ID NO:155)) at 0.5 uM final concentration, and incubated at room temperature for 10 min. Recombinant NME7-AB protein expressed and purified from E. coli was added free in solution at the concentrations indicated. When particle-immobilized proteins bind to each other, or simultaneously bind to two different peptides on two different particles, the particle solution color changes from pink/red to purple/blue. If the protein added free in solution causes particle aggregation, it is strong evidence that the free protein dimerizes the cognate peptide, since binding to a single peptide would not induce two or more particles to be brought into close proximity to each other.
The NME7-AB is added free in solution at the concentrations indicated. Solution color change from pink to purple/blue from particle aggregation indicates binding between the MUC1* peptide on the particles and NME7 free in solution. […] Particle aggregation, indicating NME7 can simultaneously bind to two peptides is observed. […] The T47D breast cancer cell line Lysate, which contains native NME7 turns noticeably purple also.

A panel of cancer cells = assay: PCR of stem and cancer stem cell markers in cancer cells cultured in NME proteins; assay type: cell-based; conditions: cell type not given
Protocol: Another function that NME1 and NME7 have is the ability to transform cancer cells to the more metastatic cancer stem cell state, also called tumor initiating cells. A panel of cancer cells were cultured in a serum-free minimal base media with human NME7-AB or human NME1 dimers (‘NM23’ in figures) as the only growth factor or cytokine. After several days in this media, cells began to float off the surface and continued to grow in solution. The ‘floaters’ were collected and separately analyzed by PCR. Cells in other wells were treated with a rho kinase inhibitor (‘Ri in figures’). Quantitative PCR measurements show an increase of the cancer stem cell markers, some of which used to be thought of as stem cell markers only (Miki J et al 2007, Jeter C R et al 2011, Hong X et al 2012Faber A et al 2013, Mukherjee D et al 2013, Herreros-Villanueva M et al, 2013, Sefah K et al, 2013; Su H-T et al 2013). […] We observed a more modest, but trending, increase in markers of cancer stem cells and metastasis even in cells that were MUC1-negative (FIG. 47). We therefore conclude that NME7 likely is able to enter these cells by a route other than MUC1* wherein it can still act as a transcription factor and affect the expression levels of these genes. […] However, many cancers mutate NME1 so that it resists the formation of the self-replication limiting hexamer. Unlike NME1, NME7 is always active.
Standard methods were used to perform RT-PCR. The primers used are listed below: RNA was isolated using the Trizol® Reagent (Invitrogen) and cDNA was reverse transcribed with Random Hexamers (Invitrogren) using Super Script II (Invitrogen) and subsequently assayed for the genes FOXA2, XIST, KLF2, KLF4, NANOG and OCT4, using Applied Biosystems gene expression assays (OCT4 P/N Hs00999634_gH, Nanog P/N Hs02387400_g1, KLF2 P/N Hs00360439_g1, KLF4 P/N Hs00358836_m1, FOXa2 P/N Hs00232764_m1, OTX2 P/N Hs00222238_m1, LHX2 P/N Hs00180351_m1, XIST P/N Hs01079824 ml and GAPDH P/N 4310884E), on an Applied Biosystems 7500 real-time instrument. Each sample was run in triplicate. Gene expression was normalized to GAPDH. Data are expressed as a fold change relative to control.

B1: NME7-AB: recombinant human NME7 of NDPK A and B domains without the DM10 leader sequence, ~33 kDa (SEQ ID NO:39) (protein, listed as Homo sapiens)
chain: MEKTLALIKPDAISKAGEIIEIINKAGFTITKLKMMMLSRKEALDFHVDHQSRPFFNELIQFITTGPIIAMEILRDDAICEWKRLLGPANSGVARTDASESIRALFGTDGIRNAAHGPDSFASAAREMELFFPSSGGCGPANTAKFTNCTCCIVKPHAVSEGLLGKILMAIRDAGFEISAMQMFNMDRVNVEEFYEVYKGVVTEYHDMVTEMYSGPCVAMEIQQNNATKTFREFCGPADPEIARHLRPGTLRAIFGKTKIQNAVHCTDLPEDGLLEVQYFFKILDN
modifications: Human NME7-AB
In the case of B1, the “engraftment rate of cancer cells” value (T47D breast cancer cells; animal injected with human NME7 or NME7-AB) is reported as “several fold”, the “tumor size and growth rate” value (T47D breast cancer cells; cells mixed 50/50 vol/vol with NME7-AB, then injected every day, tumor promotion) is reported as “larger tumors that grew at an accelerated rate” and the “binding to MUC1* peptide on nanoparticles (color change pink to purple/blue)” value [1] is reported as “turned purple almost immediately”. The “binding to MUC1* peptide on nanoparticles (color change pink to purple/blue)” value ([1]; listed as NME7) was “has two binding sites for the MUC1* peptide”, the “up-regulation of KLF4” value (A panel of cancer cells) was 4 X and the “up-regulation of MUC1” value (A panel of cancer cells) was 10 X. For the same molecule, the “up-regulation of NANOG” value (A panel of cancer cells) was about 10 X, the “up-regulation of OCT4” value (A panel of cancer cells) was about 50 X and the “up-regulation of SOX2” value (A panel of cancer cells) was over 150 X. For the same molecule, the “up-regulation of cancer stem cell marker CXCR4” value (A panel of cancer cells) was about 200 X and the “up-regulation of cancer stem cell marker E-cadherin (CDH1)” value (A panel of cancer cells) was “up-regulates”.
